Measured values published in US20260049138A1 (Chugai, published 2026).

Target: T1, CD3ε homodimer protein (human, UniProt P07766 23-126, limits assumed)
T1 construct: also called CD3 (CD3ε)
Assay: SPR Biacore T200, CD3ε homodimer on chip;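 further: Light-chain single-residue variant antibodies injected over amine-coupled CD3ε homodimer on a CM4 chip at 25 °C, bound amount divided by that of the GLS3000-containing antibody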

T1 sequence (P07766 23-126 limits assumed): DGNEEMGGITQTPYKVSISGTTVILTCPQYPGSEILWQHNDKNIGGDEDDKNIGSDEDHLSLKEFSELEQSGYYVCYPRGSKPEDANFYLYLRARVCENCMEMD

Binder | ratio of amount bound vs unaltered GLS3000
GLS3000 R54W one-arm antibody (antibody, human IgG1, kappa, L234A L235A, N297A, name in Kabat numbering) heavy: QVQLVESGGGVVQPGRSLRLSCAASGFTFSNAWMHWVRQAPGKGLEWVAQIKAKSNNYATYYAESVKGRFTISRDDSKNSLYLQMNSLKTEDTAVYYCRYVHYGAYYGVDAWGQGTTVTVSSASTKGPSVFPLAPSSKSTSGGTAALGCLVKDYFPEPVTVSWNSGALTSGVHTFPAVLQSSGLYSLSSVVTVPSSSLGTQTYICNVNHKPSNTKVDKKVEPKSCDKTHTCPPCPAPEAAGGPSVFLFPPKPKDTLMISRTPEVTCVVVDVSHEDPEVKFNWYVDGVEVHNAKTKPREEQYASTYRVVSVLTVLHQDWLNGKEYKCKVSNKALPAPIEKTISKAKGQPREPQVYTLPPSRCELTKNQVSLSCAVKGFYPSDIAVEWESNGQPENNYKTTPPVLDSDGSFFLVSKLTVDKSRWQQGNVFSCSVMHEALHNHYTQKSLSLSPDYKDDDDK EPKSSDKTHTCPPCPAPELLGGPSVFLFPPKPKDTLMISRTPEVTCVVVDVSHEDPEVKFNWYVDGVEVHNAKTKPREEQYNSTYRVVSVLTVLHQDWLNGKEYKCKVSNKALPAPIEKTISKAKGQPREPQVCTLPPSRDELTKNQVSLWCLVKGFYPSDIAVEWESNGQPENNYKTTPPVLDSDGSFFLYSKLTVDKSRWQQGNVFSCSVMHEALHNRYTQKSLSLSP light: DIVMTQSPLSLPVTPGEPASISCRSSQSLVHSNRNTYLHWYQQKPGQAPRLLIYKVSNWFSGVPDRFSGSGSGTDFTLKISRVEAEDVGVYYCGQGTQVPYTFGQGTKLEIKRTVAAPSVFIFPPSDEQLKSGTASVVCLLNNFYPREAKVQWKVDNALQSGNSQESVTEQDSKDSTYSLSSTLTLSKADYEKHKVYACEVTHQGLSSPVTKSFNRGEC | 0.78
GLS3000 R77S one-arm antibody (antibody, human IgG1, kappa, L234A L235A, N297A, name in Kabat numbering) heavy: QVQLVESGGGVVQPGRSLRLSCAASGFTFSNAWMHWVRQAPGKGLEWVAQIKAKSNNYATYYAESVKGRFTISRDDSKNSLYLQMNSLKTEDTAVYYCRYVHYGAYYGVDAWGQGTTVTVSSASTKGPSVFPLAPSSKSTSGGTAALGCLVKDYFPEPVTVSWNSGALTSGVHTFPAVLQSSGLYSLSSVVTVPSSSLGTQTYICNVNHKPSNTKVDKKVEPKSCDKTHTCPPCPAPEAAGGPSVFLFPPKPKDTLMISRTPEVTCVVVDVSHEDPEVKFNWYVDGVEVHNAKTKPREEQYASTYRVVSVLTVLHQDWLNGKEYKCKVSNKALPAPIEKTISKAKGQPREPQVYTLPPSRCELTKNQVSLSCAVKGFYPSDIAVEWESNGQPENNYKTTPPVLDSDGSFFLVSKLTVDKSRWQQGNVFSCSVMHEALHNHYTQKSLSLSPDYKDDDDK EPKSSDKTHTCPPCPAPELLGGPSVFLFPPKPKDTLMISRTPEVTCVVVDVSHEDPEVKFNWYVDGVEVHNAKTKPREEQYNSTYRVVSVLTVLHQDWLNGKEYKCKVSNKALPAPIEKTISKAKGQPREPQVCTLPPSRDELTKNQVSLWCLVKGFYPSDIAVEWESNGQPENNYKTTPPVLDSDGSFFLYSKLTVDKSRWQQGNVFSCSVMHEALHNRYTQKSLSLSP light: DIVMTQSPLSLPVTPGEPASISCRSSQSLVHSNRNTYLHWYQQKPGQAPRLLIYKVSNRFSGVPDRFSGSGSGTDFTLKISSVEAEDVGVYYCGQGTQVPYTFGQGTKLEIKRTVAAPSVFIFPPSDEQLKSGTASVVCLLNNFYPREAKVQWKVDNALQSGNSQESVTEQDSKDSTYSLSSTLTLSKADYEKHKVYACEVTHQGLSSPVTKSFNRGEC | 0.92
GLS3000 S25A one-arm antibody (antibody, human IgG1, kappa, L234A L235A, N297A, name in Kabat numbering) heavy: QVQLVESGGGVVQPGRSLRLSCAASGFTFSNAWMHWVRQAPGKGLEWVAQIKAKSNNYATYYAESVKGRFTISRDDSKNSLYLQMNSLKTEDTAVYYCRYVHYGAYYGVDAWGQGTTVTVSSASTKGPSVFPLAPSSKSTSGGTAALGCLVKDYFPEPVTVSWNSGALTSGVHTFPAVLQSSGLYSLSSVVTVPSSSLGTQTYICNVNHKPSNTKVDKKVEPKSCDKTHTCPPCPAPEAAGGPSVFLFPPKPKDTLMISRTPEVTCVVVDVSHEDPEVKFNWYVDGVEVHNAKTKPREEQYASTYRVVSVLTVLHQDWLNGKEYKCKVSNKALPAPIEKTISKAKGQPREPQVYTLPPSRCELTKNQVSLSCAVKGFYPSDIAVEWESNGQPENNYKTTPPVLDSDGSFFLVSKLTVDKSRWQQGNVFSCSVMHEALHNHYTQKSLSLSPDYKDDDDK EPKSSDKTHTCPPCPAPELLGGPSVFLFPPKPKDTLMISRTPEVTCVVVDVSHEDPEVKFNWYVDGVEVHNAKTKPREEQYNSTYRVVSVLTVLHQDWLNGKEYKCKVSNKALPAPIEKTISKAKGQPREPQVCTLPPSRDELTKNQVSLWCLVKGFYPSDIAVEWESNGQPENNYKTTPPVLDSDGSFFLYSKLTVDKSRWQQGNVFSCSVMHEALHNRYTQKSLSLSP light: DIVMTQSPLSLPVTPGEPASISCRASQSLVHSNRNTYLHWYQQKPGQAPRLLIYKVSNRFSGVPDRFSGSGSGTDFTLKISRVEAEDVGVYYCGQGTQVPYTFGQGTKLEIKRTVAAPSVFIFPPSDEQLKSGTASVVCLLNNFYPREAKVQWKVDNALQSGNSQESVTEQDSKDSTYSLSSTLTLSKADYEKHKVYACEVTHQGLSSPVTKSFNRGEC | 0.92
GLS3000 S25D one-arm antibody (antibody, human IgG1, kappa, L234A L235A, N297A, name in Kabat numbering) heavy: QVQLVESGGGVVQPGRSLRLSCAASGFTFSNAWMHWVRQAPGKGLEWVAQIKAKSNNYATYYAESVKGRFTISRDDSKNSLYLQMNSLKTEDTAVYYCRYVHYGAYYGVDAWGQGTTVTVSSASTKGPSVFPLAPSSKSTSGGTAALGCLVKDYFPEPVTVSWNSGALTSGVHTFPAVLQSSGLYSLSSVVTVPSSSLGTQTYICNVNHKPSNTKVDKKVEPKSCDKTHTCPPCPAPEAAGGPSVFLFPPKPKDTLMISRTPEVTCVVVDVSHEDPEVKFNWYVDGVEVHNAKTKPREEQYASTYRVVSVLTVLHQDWLNGKEYKCKVSNKALPAPIEKTISKAKGQPREPQVYTLPPSRCELTKNQVSLSCAVKGFYPSDIAVEWESNGQPENNYKTTPPVLDSDGSFFLVSKLTVDKSRWQQGNVFSCSVMHEALHNHYTQKSLSLSPDYKDDDDK EPKSSDKTHTCPPCPAPELLGGPSVFLFPPKPKDTLMISRTPEVTCVVVDVSHEDPEVKFNWYVDGVEVHNAKTKPREEQYNSTYRVVSVLTVLHQDWLNGKEYKCKVSNKALPAPIEKTISKAKGQPREPQVCTLPPSRDELTKNQVSLWCLVKGFYPSDIAVEWESNGQPENNYKTTPPVLDSDGSFFLYSKLTVDKSRWQQGNVFSCSVMHEALHNRYTQKSLSLSP light: DIVMTQSPLSLPVTPGEPASISCRDSQSLVHSNRNTYLHWYQQKPGQAPRLLIYKVSNRFSGVPDRFSGSGSGTDFTLKISRVEAEDVGVYYCGQGTQVPYTFGQGTKLEIKRTVAAPSVFIFPPSDEQLKSGTASVVCLLNNFYPREAKVQWKVDNALQSGNSQESVTEQDSKDSTYSLSSTLTLSKADYEKHKVYACEVTHQGLSSPVTKSFNRGEC | 0.18
